Results as given in US20210403567A1, “METHODS OF TREATING CERVICAL CANCER BY ADMINISTERING A PD-1 INHIBITOR” (priority 2020, published 2021).

Columns and labels:
[1] = Phase I expansion cohorts: safety, treatment-emergent adverse events (NCI CTCAE 4.03); assay type: in vivo, human
Method: The combination therapy cohort enrolled patients for whom palliative hfRT was planned to a lesion that was causing some signs or symptoms. The radiated lesion was not followed as a target lesion for response assessments.
Assessments: Tumor histology was assessed per local pathology reports of tumor samples obtained at any time prior to study enrollment. […] Extensive safety evaluations were performed during screening and on Day 1 of each subsequent treatment cycle throughout the study. Routine safety evaluations were performed at each cemiplimab dosing visit. Tumor response assessments were performed by investigators, per RECIST 1.1, at the end of each 8-week treatment cycle. In combination therapy cohorts, the lesions selected for hfRT were not included in RECIST 1.1 assessments.
Statistical analysis of clinical data: The safety summaries and analyses were performed on the safety analysis set. Data were summarized using descriptive statistics, along with two-sided 95% confidence interval (CI), by dose cohort. Continuous variables were summarized with mean, median, standard deviation, minimum, and maximum. Categorical variables were summarized with frequency and percentage. Kaplan-Meier analysis was performed for progression-free survival (PFS) and OS.

[2] = test system: cervical cancer; conditions: durable responses; cited from earlier work

Substance: cemiplimab
- Treatment-related TEAEs (Grade 3) ([1]; 1/10): 10%
- Treatment-related TEAE: Any ([1]; Grade ≥ 3, n = 10 per cohort): 1 n (%)
- Treatment-related TEAE: Diarrhea ([1]; Grade ≥ 3, n = 10 per cohort): 0 n (%)
- Treatment-related TEAE: Fatigue ([1]; Grade ≥ 3, n = 10 per cohort): 1 n (%)
- Treatment-related TEAE: Hyponatremia ([1]; Grade ≥ 3, n = 10 per cohort): 0 n (%)
- Treatment-related TEAE: Hypothyroidism ([1]; Grade ≥ 3, n = 10 per cohort): 0 n (%)
- Treatment-related TEAE: Myalgia ([1]; Grade ≥ 3, n = 10 per cohort): 1 n (%)
- Treatment-related TEAE: Pneumonitis ([1]; Grade ≥ 3, n = 10 per cohort): 0 n (%)
- Treatment-related TEAE: Any ([1]; any grade, n = 10 per cohort): 7 n (%)
- Treatment-related TEAE: Diarrhea ([1]; any grade, n = 10 per cohort): 2 n (%)
- Treatment-related TEAE: Fatigue ([1]; any grade, n = 10 per cohort): 3 n (%)
- Treatment-related TEAE: Hyponatremia ([1]; any grade, n = 10 per cohort): 1 n (%)
- Treatment-related TEAE: Hypothyroidism ([1]; any grade, n = 10 per cohort): 2 n (%)
- Treatment-related TEAE: Myalgia ([1]; any grade, n = 10 per cohort): 1 n (%)
- Treatment-related TEAE: Pneumonitis ([1]; any grade, n = 10 per cohort): 1 n (%)
- TEAE fatigue ([1]; both cohorts combined (5/20)): 25%
- TEAE hypokalemia ([1]; both cohorts combined (5/20)): 25%
- TEAE diarrhea ([1]; both cohorts combined (7/20)): 35%
- patients who experienced grade TEAEs ([1]; four patients of 10 per cohort): 40.0%
- TEAEs of any grade, regardless of treatment attribution ([1]; n = 10 per cohort): 9 patients
- discontinued treatment due to TEAEs ([1]; n = 10 per cohort): No patients
- responding patients in dose escalation [2]: 2/3
